Experimental data from patent US7259247.

Biological target: CD28 (UniProt P10747)
Assay: cell-based or functional assay

Sequence of UniProt P10747 (P10747 19-220 limits assumed): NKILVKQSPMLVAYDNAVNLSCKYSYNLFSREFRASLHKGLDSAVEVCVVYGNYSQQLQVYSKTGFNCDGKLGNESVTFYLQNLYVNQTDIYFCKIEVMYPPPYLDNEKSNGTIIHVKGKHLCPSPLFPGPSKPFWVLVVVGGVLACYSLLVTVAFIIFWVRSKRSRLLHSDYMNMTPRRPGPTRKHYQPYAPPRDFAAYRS

expression of other activation antigens on CD4+ T cells, suboptimal OKT3, plate-bound antibody costimulation: 4 to 100 fold
Substance: anti-CD28 antibody 9.3
